B1: his-tagged human full-length kindlin2 [human] / his/Avi-tagged cytoplasmic tail of ephrinB2 WT [modified: biotinylated; biotinylated] [not stated] (parent complex)
chain 1: MALDGIRMPDGCYADGTWELSVHVTDLNRDVTLRVTGEVHIGGVMLKLVEKLDVKKDWSDHALWWEKKRTWLLKTHWTLDKYGIQADAKLQFTPQHKLLRLQLPNMKYVKVKVNFSDRVFKAVSDICKTFNIRHPEELSLLKKPRDPTKKKKKKLDDQSEDEALELEGPLITPGSGSIYSSPGLYSKTMTPTYDAHDGSPLSPTSAWFGDSALSEGNPGILAVSQPITSPEILAKMFKPQALLDKAKINQGWLDSSRSLMEQDVKENEALLLRFKYYSFFDLNPKYDAIRINQLYEQAKWAILLEEIECTEEEMMMFAALQYHINKLSIMTSENHLNNSDKEVDEVDAALSDLEITLEGGKTSTILGDITSIPELADYIKVFKPKKLTLKGYKQYWCTFKDTSISCYKSKEESSGTPAHQMNLRGCEVTPDVNISGQKFNIKLLIPVAEGMNEIWLRCDNEKQYAHWMAACRLASKGKTMADSSYNLEVQNILSFLKMQHLNPDPQLIPEQITTDITPECLVSPRYLKKYKNKQITARILEAHQNVAQMSLIEAKMRFIQAWQSLPEFGITHFIARFQGGKKEELIGIAYNRLIRMDASTGDAIKTWRFSNMKQWNVNWEIKMVTVEFADEVRLSFICTEVDCKVVHEFIGGYIFLSTRAKDQNESLDEEMFYKLTSGWV
chain 2: KYRRRHRKHSPQHTTTLSLSTLATPKRSGNNNGSEPSDIIIPLRTADSVFCPHYEKVSGDYGHPVYIVQEMPPQSPANIYYKV

Variants of: B1
Test: in vitro binding assay (pulldown on NeutrAvidin beads, Western blot densitometry); purified kindlin2; n = 3; read off a plot
In the case of chain 2 N78A, chain 2 I79A, chain 2 Y80A, chain 2 Y81A, the percent of parent is reported as roughly 14 % WT. In the case of chain 2 N78A, the percent of parent is reported as roughly 107 % WT. With chain 2 Y81A the percent of parent was roughly 61 % WT. chain 2 N78A, chain 2 Y81A showed a percent of parent of roughly 36 % WT. Variant chain 2 S75A has a percent of parent of roughly 105 % WT.
